Numbering of substitutions follows the chain as printed.
Columns and labels:
[1] = biological target: T1, Muc1 mucin carrying the CA6 sialoglycotope (human, UniProt P15941 24-1255, sialylated O-linked carbohydrate carrying the CA6 epitope; positions not stated); experiment: flow cytometry on WISH cells, direct binding
T1 construct: whole, on cells; Target of DS6 on CA6-positive human cell lines (flow cytometry) and in their lysates (dot blots, immunoprecipitation); also called CA6 antigen; DS6 antigen

[2] = biological target: T1, Muc1 mucin carrying the CA6 …; experiment: competition flow cytometry on WISH cells; competitor 2 nM biotin-muDS6, streptavidin-DTAF
Experimental: (§1) To confirm that the huDS6 versions retains the affinity of muDS6, competitive binding experiments were conducted. […] In some cases, the experimentally measured apparent Kd can vary simply because of the secondary reagent used to indirectly detect binding.

[3] = biological target: T1, Muc1 mucin carrying the CA6 …; experiment: cell-based or functional assay
[4] = biological target: T1, Muc1 mucin carrying the CA6 …; experiment: flow cytometry on Caov-3 cells
[5] = biological target: T1, Muc1 mucin carrying the CA6 …; experiment: flow cytometry on WISH cells, detected with streptavidin-DTAF
Experimental: as §1

[6] = biological target: T1, Muc1 mucin carrying the CA6 …; experiment: flow cytometry on WISH cells, detected with goat anti-mouse-FITC
[7] = biological target: T1, Muc1 mucin carrying the CA6 …; experiment: flow cytometry on HeLa cells

B1: humanized DS6 antibody version 1.0 (antibody, human IgG1, V domains shown)
VH: QAQLQVSGAEVVKPGASVKMSCKASGYTFTSYNMHWVKQTPGQGLEWIGYIYPGNGATNYNQKFQGKATLTADTSSSTAYMQISSLTSEDSAVYFCARGDSVPFAYWGQGTLVTVSA
VL: EIVLTQSPATMSASPGERVTITCSAHSSVSFMHWFQQKPGTSPKLWIYSTSSLASGVPARFGGSGSGTSYSLTISSMEAEDAATYYCQQRSSFPLTFGAGTKLELKR
notes: also called huDS6 v1.0; v1.0
Kd [1]: 3.71 nM
EC50 [2]: 37.1 nM

B2: chimeric DS6 (antibody, V domains shown)
VH: B1 VH with Q3Y, V6Q, V11L, K13R, P14S, Q65K, T74P
VL: B1 VL with E1Q, T10I, R18K, S76R
Kd [1]: 3.15 nM

B3: DS6 antibody-DM1 conjugate (antibody, V domains shown)
VH: B1 VH with Q3Y, V6Q, V11L, K13R, P14S, Q65K, T74P
VL: B1 VL with E1Q, T10I, R18K, S76R
modifications: DM1 linked through the SPP disulfide linker, DM1/Ab ratio 4.36; positions not given
notes: also called DS6-DM1; immunoconjugate
Clonogenic Assay Conjugate IC50 (M), BT-20 cells [3]: > 3e-09 M
Clonogenic Assay Conjugate IC50 (M), BT-483 cells [3]: 1e-10 M
Clonogenic Assay Conjugate IC50 (M), Caov-3 cells [3]: 8e-10 M
Clonogenic Assay Conjugate IC50 (M), Caov-4 cells [3]: > 3e-09 M
Clonogenic Assay Conjugate IC50 (M), HPAC cells [3]: 1.8e-09 M
Clonogenic Assay Conjugate IC50 (M), HPAF-II cells [3]: > 3e-09 M
Clonogenic Assay Conjugate IC50 (M), HeLa cells [3]: 1.8e-09 M
Clonogenic Assay Conjugate IC50 (M), Hs766T cells [3]: > 3e-09 M
Clonogenic Assay Conjugate IC50 (M), KB cells [3]: 1.4e-09 M
Clonogenic Assay Conjugate IC50 (M), OVCAR5 cells [3]: > 3e-09 M
Clonogenic Assay Conjugate IC50 (M), T-47D cells [3]: > 3e-09 M
Clonogenic Assay Conjugate IC50 (M), TOV-21G cells [3]: 2e-09 M
Clonogenic Assay Conjugate IC50 (M), WISH cells [3]: 4.6e-10 M
MTT Assay Conjugate EC50 (M), BT-20 cells [3]: 1.44e-08 M
MTT Assay Conjugate EC50 (M), Caov-3 cells [3]: 1.61e-09 M
MTT Assay Conjugate EC50 (M), HPAC cells [3]: 1.84e-09 M
MTT Assay Conjugate EC50 (M), HPAF-II cells [3]: 1e-08 M
MTT Assay Conjugate EC50 (M), Hs766T cells [3]: > 3.2e-08 M
MTT Assay Conjugate EC50 (M), KB cells [3]: 3.01e-09 M
MTT Assay Conjugate EC50 (M), OVCAR5 cells [3]: 8.46e-07 M
MTT Assay Conjugate EC50 (M), TOV-21G cells [3]: 6.88e-09 M
MTT Assay Conjugate EC50 (M), WISH cells [3]: 6.69e-10 M
MTT Assay Conjugate EC50 (M), ZR-75-1 cells [3]: 9.45e-10 M
Kd [4]: 3.9 nM

B4: biotinylated murine DS6 (antibody, V domains shown)
VH: B1 VH with Q3Y, V6Q, V11L, K13R, P14S, Q65K, T74P
VL: B1 VL with E1Q, T10I, R18K, S76R
modifications: biotinylated; positions not given
notes: Murine DS6 IgG with biotin; also called biotin-muDS6; biotin-DS6
Kd [5]: 6.76 nM
Kd [6]: 2.8 nM

B5: DS6-SPP-MM1-202 taxoid conjugate (antibody, V domains shown)
VH: B1 VH with Q3Y, V6Q, V11L, K13R, P14S, Q65K, T74P
VL: B1 VL with E1Q, T10I, R18K, S76R
modifications: taxoid MM1-202 linked through the SSNPP linker, 2.86 drugs/antibody; positions not given
notes: also called taxane-conjugated DS6 antibody
Kd [7]: 1.24 nM

B6: humanized DS6 antibody version 1.2 (antibody, human IgG1, V domains shown)
VH: B1 VH with T74P
VL: B1 VL
notes: The light chain is the same as in v1.0; also called huDS6 v1.2; v1.2
Kd [1]: 4.2 nM
EC50 [2]: 22.6 nM
